Publication PMC5531734 (Molecular Biology of the Cell, 2017)

Target: Na/K-ATPase α1-β2 (ATP1A1 with ATP1B2) (human, UniProt P05023-1 1-1023; P14415 1-290)
Experiment: binding to transfected cells, Western blot of washed cell pellets

B1: retinoschisin (natural protein)
chain: STEDEGEDPWYQKACKCDCQGGPNALWSAGATSLDCIPECPYHKPLGFESGEVTPDQITCSNPEQYVGWYSSWTANKARLNSQGFGCAWLSKFQDSSQWLQIDLKEIKVISGILTQGRCDIDEWMTKYSVQYRTDERLNWIYYKDQTGNNRVFYGNSDRTSTVQNLLRPPIISRFIRLIPLGWHVRIAIRMELLECVSKCA
retinoschisin binding relative to α3-β2 (densitometry): 1.5 fold of binding to α3-β2
